These results are taken from patent publication US20080213836.

The target of series [1] is recombinant fusion protein of Medaka gelatinase A.
For series [2], the target named is human single-chain tPA fusion protein with N-terminal His-tag/EP-cleavage site, P00750.
The target in series [3] is T1, Gly-Asp-Asp-Asp-Asp-Lys-β-naphthylamide.
T1 chain: GDDDDK

In series [4] the target is D4K-cleavage site-containing control protein (Novagen).
For series [5], the target named is T2, human high-molecular-weight (HMW) kininogen, P01042.
T2 chain: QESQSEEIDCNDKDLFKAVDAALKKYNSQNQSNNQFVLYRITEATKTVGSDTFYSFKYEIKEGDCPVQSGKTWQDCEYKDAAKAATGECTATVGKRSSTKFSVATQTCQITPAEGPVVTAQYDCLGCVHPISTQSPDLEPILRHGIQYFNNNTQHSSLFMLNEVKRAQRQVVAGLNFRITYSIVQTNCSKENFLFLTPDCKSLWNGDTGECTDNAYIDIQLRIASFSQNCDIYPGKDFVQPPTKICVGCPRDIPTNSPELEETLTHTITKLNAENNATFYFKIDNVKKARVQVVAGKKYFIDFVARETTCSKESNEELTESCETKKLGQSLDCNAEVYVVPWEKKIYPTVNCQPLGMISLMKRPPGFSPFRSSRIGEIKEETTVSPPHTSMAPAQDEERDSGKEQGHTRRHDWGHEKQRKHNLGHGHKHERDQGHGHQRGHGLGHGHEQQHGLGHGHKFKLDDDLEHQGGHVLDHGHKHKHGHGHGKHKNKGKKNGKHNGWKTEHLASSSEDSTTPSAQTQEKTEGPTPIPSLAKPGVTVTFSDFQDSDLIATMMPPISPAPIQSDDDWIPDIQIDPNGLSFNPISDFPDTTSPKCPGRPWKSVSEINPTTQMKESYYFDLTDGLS

The target of a further series is T3, Pro-Phe-Arg-MCA.
T3 chain: PFR

Series [6] concerns the target Human plasma fibronectin, P02751.
The target in series [7] is T4, Boc-Glu(OBzl)-Ala-Arg-MCA.
T4 chain: EAR

A further series addresses T5, human fibrinogen, P02671.
T5 chain 1: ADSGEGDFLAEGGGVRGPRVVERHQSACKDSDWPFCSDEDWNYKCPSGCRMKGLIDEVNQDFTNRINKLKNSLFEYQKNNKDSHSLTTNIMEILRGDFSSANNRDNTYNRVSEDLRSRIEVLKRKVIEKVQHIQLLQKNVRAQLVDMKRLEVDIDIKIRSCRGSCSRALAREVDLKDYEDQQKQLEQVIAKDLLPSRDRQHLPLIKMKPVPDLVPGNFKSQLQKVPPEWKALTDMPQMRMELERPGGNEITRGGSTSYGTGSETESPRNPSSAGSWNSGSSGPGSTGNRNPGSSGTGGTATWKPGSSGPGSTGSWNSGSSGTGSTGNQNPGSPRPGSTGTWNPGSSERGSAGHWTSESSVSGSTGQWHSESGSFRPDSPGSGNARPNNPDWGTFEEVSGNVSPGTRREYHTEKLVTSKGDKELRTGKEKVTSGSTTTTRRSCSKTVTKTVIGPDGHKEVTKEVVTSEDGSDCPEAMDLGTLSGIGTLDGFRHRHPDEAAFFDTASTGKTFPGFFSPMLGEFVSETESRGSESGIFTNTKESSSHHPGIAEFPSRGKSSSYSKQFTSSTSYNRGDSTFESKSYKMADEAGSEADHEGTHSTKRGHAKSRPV
T5 chain 2: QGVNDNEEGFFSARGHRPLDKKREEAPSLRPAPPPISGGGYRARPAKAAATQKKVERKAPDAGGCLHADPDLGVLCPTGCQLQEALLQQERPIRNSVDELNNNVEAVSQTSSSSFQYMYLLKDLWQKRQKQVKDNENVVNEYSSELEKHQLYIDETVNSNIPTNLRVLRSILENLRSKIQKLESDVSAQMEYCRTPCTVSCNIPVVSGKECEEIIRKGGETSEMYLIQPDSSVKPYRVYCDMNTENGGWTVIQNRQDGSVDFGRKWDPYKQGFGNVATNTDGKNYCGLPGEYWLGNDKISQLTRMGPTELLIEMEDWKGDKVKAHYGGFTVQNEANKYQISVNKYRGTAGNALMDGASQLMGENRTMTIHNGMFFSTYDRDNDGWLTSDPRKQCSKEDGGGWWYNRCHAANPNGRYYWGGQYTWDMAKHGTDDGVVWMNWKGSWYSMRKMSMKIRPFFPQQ
T5 chain 3: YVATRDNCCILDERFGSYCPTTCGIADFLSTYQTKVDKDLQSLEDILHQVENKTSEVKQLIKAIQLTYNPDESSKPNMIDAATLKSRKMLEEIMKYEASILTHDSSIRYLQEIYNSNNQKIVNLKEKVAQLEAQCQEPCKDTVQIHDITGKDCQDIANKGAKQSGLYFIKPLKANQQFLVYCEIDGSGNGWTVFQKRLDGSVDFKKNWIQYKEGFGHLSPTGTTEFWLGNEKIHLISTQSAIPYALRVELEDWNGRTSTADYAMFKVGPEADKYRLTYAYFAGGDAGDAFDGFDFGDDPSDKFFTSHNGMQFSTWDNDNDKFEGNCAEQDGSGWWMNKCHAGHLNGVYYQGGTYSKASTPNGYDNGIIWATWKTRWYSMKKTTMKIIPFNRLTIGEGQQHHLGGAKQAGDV

Another series has as its target T6, Z-Phe-Arg-MCA.
T6 chain: FR

Sequence of human single-chain tPA fusion protein with N-terminal His-tag/EP-cleavage site, P00750 (P00750 whole entry, looked up, the tested form may be a part): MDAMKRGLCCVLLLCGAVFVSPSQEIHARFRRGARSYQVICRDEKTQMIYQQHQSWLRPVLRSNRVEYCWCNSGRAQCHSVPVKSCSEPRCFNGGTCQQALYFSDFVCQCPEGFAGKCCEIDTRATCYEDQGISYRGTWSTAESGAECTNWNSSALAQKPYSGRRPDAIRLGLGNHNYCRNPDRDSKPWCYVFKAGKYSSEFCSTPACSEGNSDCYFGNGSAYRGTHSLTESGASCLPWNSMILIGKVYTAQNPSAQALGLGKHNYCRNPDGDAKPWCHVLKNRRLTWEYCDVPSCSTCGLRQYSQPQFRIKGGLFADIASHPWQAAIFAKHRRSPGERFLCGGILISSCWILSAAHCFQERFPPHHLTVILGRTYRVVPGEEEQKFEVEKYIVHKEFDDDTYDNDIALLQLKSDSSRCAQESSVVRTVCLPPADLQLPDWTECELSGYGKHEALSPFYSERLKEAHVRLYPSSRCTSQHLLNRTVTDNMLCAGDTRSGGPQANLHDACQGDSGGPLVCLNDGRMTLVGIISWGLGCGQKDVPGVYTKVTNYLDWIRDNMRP
Sequence of Human plasma fibronectin, P02751 (P02751 other isoform, or with tags, fused parts or gaps): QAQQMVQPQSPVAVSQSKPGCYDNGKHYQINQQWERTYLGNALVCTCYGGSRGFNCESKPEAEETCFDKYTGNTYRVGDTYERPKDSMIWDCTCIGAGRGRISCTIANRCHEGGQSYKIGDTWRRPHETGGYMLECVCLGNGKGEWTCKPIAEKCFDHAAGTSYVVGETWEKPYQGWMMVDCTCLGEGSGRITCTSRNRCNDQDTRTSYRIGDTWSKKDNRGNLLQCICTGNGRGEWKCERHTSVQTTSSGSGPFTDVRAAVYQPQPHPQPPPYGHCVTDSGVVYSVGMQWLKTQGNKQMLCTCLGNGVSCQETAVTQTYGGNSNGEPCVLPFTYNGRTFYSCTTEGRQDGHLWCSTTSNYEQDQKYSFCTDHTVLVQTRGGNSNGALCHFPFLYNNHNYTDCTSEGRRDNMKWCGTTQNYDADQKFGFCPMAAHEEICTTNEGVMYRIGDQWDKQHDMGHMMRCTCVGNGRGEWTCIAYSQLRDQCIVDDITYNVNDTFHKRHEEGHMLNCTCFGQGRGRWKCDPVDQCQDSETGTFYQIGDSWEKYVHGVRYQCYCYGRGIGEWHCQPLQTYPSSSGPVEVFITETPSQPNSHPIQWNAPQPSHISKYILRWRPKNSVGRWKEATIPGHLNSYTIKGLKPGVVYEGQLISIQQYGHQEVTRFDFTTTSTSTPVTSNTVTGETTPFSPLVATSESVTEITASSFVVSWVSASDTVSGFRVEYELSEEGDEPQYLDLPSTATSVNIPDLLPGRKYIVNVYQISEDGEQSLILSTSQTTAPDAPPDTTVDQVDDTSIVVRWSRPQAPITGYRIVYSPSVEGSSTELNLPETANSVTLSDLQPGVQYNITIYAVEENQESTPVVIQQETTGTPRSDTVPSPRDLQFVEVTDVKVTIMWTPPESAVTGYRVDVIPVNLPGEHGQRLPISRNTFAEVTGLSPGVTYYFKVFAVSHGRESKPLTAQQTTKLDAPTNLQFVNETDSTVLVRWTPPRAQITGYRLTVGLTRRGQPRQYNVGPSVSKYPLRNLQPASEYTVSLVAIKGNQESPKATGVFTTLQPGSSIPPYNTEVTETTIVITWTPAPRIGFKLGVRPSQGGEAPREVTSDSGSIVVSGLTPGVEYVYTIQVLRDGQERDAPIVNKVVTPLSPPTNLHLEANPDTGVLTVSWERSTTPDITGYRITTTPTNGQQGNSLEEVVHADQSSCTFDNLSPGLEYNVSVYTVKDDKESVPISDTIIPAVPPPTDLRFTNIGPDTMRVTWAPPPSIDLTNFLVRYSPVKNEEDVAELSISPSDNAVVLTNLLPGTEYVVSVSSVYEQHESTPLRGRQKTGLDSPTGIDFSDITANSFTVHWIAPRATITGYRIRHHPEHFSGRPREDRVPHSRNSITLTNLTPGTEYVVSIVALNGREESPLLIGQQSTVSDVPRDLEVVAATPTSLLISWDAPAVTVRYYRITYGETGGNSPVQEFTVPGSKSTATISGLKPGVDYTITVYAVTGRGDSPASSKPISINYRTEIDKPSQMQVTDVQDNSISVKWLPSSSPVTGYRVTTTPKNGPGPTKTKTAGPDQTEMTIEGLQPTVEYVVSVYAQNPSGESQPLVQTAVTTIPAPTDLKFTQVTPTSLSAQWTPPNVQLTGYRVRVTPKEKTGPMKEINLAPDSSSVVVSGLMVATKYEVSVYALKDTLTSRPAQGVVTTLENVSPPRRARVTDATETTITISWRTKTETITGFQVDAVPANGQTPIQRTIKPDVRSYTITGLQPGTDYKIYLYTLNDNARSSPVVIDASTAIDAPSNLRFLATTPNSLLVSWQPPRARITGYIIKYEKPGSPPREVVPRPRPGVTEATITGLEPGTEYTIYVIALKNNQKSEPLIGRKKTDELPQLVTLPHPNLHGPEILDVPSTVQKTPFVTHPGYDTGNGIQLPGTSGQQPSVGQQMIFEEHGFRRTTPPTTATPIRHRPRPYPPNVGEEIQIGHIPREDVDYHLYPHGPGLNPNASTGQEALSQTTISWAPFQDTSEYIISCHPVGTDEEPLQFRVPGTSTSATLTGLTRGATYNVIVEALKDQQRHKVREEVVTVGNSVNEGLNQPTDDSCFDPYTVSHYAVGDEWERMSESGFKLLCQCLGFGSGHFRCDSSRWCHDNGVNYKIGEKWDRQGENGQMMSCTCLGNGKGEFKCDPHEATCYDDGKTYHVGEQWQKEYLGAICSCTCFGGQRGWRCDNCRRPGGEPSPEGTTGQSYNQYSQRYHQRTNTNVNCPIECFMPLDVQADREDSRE

B1: Bovine EP serine protease (New England Biolabs) (protein)
chain: IVGGSDSREGAWPWVVALYFDDQQVCGASLVSRDWLVSAAHCVYGRNMEPSKWKAVLGLHMASNLTSPQIETRLIDQIVINPHYNKRRKNNDIAMMHLEMKVNYTDYIQPICLPEENQVFPPGRICSIAGWGALIYQGSTADVLQEADVPLLSNEKCQQQMPEYNITENMVCAGYEAGGVDSCQGDSGGPLMCQENNRWLLAGVTSFGYQCALPNRPGVYARVPRFTEWIQSFLH
Usually Km stands for the concentration of substrate that gives half-maximal velocity. The term kcat denotes the number of substrate molecules converted per active site and unit of time at saturation. Regarding B1, the figures for the “cleavage of the fusion protein (SDS-PAGE)” value in series [1] and in series [4] were “the fusion protein was extensively digested by mammalian EP serine proteases” and “the mammalian enzymes not only produced the two expected polypeptides but also further degraded the products”, respectively. Moreover, the “proteolytic activity (SDS-PAGE)” value (in the series with mouse laminin; in [6]) was “these substrates were detectably hydrolyzed by the mammalian proteases” throughout. Besides, the “cleavage of the fusion protein (SDS-PAGE/Western blot)” value in series [2] is “but not with mammalian ones, showed two polypeptides (53- and 55-kDa)”. Also, the Michaelis-Menten constant (Km) in [3] turned out to be 500 µM; with Pro-Phe-Arg-MCA, 2900 µM; in series [7], 400 µM; with Z-Phe-Arg-MCA, 400 µM. Besides, the kcat in [3] worked out at 25 s⁻¹; with Pro-Phe-Arg-MCA, 21.7 s⁻¹; in [7], 9.5 s⁻¹; with Z-Phe-Arg-MCA, 10 s⁻¹. In addition, the kcat/Km (mM^-1 · min^-1) in series [3] was found to be 3000; with Pro-Phe-Arg-MCA, 450; in series [7] it was 1400; with Z-Phe-Arg-MCA, 1500. Moreover, the “proteolytic activity (gelatin zymography)” value with gelatin is given as “these substrates were detectably hydrolyzed by the mammalian proteases”. The “nonspecific proteolytic activity (SDS-PAGE)” value in [5] is reported as “both of which were degraded noticeably by mammalian EP proteases”; in the series with human fibrinogen, P02671 it was “both of which were degraded noticeably by mammalian EP proteases”.

B2: Bovine EP serine protease (Novagen) (protein)
chain: B1 chain
Consider B2, for which the “cleavage of the fusion protein (SDS-PAGE)” value is “the fusion protein was extensively digested by mammalian EP serine proteases” in series [1] and “the mammalian enzymes not only produced the two expected polypeptides but also further degraded the products” in [4]. Further, the “proteolytic activity (SDS-PAGE)” value (with mouse laminin; in series [6]) was “these substrates were detectably hydrolyzed by the mammalian proteases” in each case. Also, in series [2], the “cleavage of the fusion protein (SDS-PAGE/Western blot)” value was “but not with mammalian ones, showed two polypeptides (53- and 55-kDa)”. Further, the Km was 800 µM in series [3], 4000 µM with Pro-Phe-Arg-MCA, 500 µM in [7] and 500 µM with Z-Phe-Arg-MCA. Moreover, the kcat was determined as 12.8 s⁻¹ in [3], 13.2 s⁻¹ with Pro-Phe-Arg-MCA, 12.3 s⁻¹ in series [7] and 12 s⁻¹ in the series with Z-Phe-Arg-MCA. Further, the kcat/Km (mM^-1 · min^-1) is 960 in series [3], 200 with Pro-Phe-Arg-MCA, 1500 in [7] and 1400 in the series with Z-Phe-Arg-MCA. In the series with gelatin, the “proteolytic activity (gelatin zymography)” value is given as “these substrates were detectably hydrolyzed by the mammalian proteases”. The “nonspecific proteolytic activity (SDS-PAGE)” value was “both of which were degraded noticeably by mammalian EP proteases” in series [5] and “both of which were degraded noticeably by mammalian EP proteases” in the series with human fibrinogen, P02671.
